Laboratory results from patent US9115383B2, “Fluorescence assay for ghrelin O-acyltransferase activity” (Syracuse University, priority 2012, dated 2015).
No end group written: not given here. *: point of attachment. acrylodan = acrylodan label (AcDan) on Cys, CN(C)c1ccc2cc(C(=O)CC*)ccc2c1; Dansyl = CN(C)c1cccc2c(S(=O)(=O)*)cccc12

Target: T1, hGOAT (Homo sapiens, UniProt Q96T53)
T1 construct: the gene for hGOAT was cloned with a C-terminal His10 tag into the pFastBacDual vector; His10 (C); made in house; host or cells: Sf9 insect cells, baculovirus (pFastBacDual); used as membrane fraction
T1 sequence (Q96T53 1-435): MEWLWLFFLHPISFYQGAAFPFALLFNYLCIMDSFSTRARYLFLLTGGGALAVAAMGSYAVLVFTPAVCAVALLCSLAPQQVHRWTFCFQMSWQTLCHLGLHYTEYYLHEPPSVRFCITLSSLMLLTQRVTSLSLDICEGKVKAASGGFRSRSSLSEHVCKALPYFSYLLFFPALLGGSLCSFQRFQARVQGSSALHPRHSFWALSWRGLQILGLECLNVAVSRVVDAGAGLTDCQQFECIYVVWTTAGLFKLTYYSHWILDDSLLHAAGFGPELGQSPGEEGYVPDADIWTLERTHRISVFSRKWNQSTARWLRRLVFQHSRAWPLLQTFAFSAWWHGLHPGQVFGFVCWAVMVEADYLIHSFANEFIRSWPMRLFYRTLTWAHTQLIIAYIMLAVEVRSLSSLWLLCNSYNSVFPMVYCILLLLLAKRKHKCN
Assay: hGOAT-catalysed octanoylation of fluorescent ghrelin peptide substrates, RP-HPLC with fluorescence detection
Assay type: biochemical
Details: for modification (octanoylation) by hGOAT: RP-HPLC with fluorescence detection, hGOAT-His10 membranes vs mock membranes; for Active with hGOAT?: peptide tested as substrate, hGOAT-His10 membranes in parallel with mock membranes; for activity with hGOAT (substrate selectivity at N-terminus, G1 and S2): ghrelin mimic peptide mutants, FIG. 5
Protocol: FIG. 3 is a schematic of ghrelin peptide acylation reactions with the fluorescent GSSFLCAcDan substrate, where (A) is a reaction with control/mock membrane fraction; (B) is a time course for GSSFLCAcDan acylation using GOAT membrane fraction, and where the assays were incubated for 1-10 minutes at 37° C. and all reactions were analyzed using reverse-phase HPLC under the following assay conditions: 10 μM peptide, 50 μg membrane protein, 500 μM octanoyl coenzyme A, 100 μM palmitoyl coenzyme A, 50 mM HEPES buffer pH 7.0.
In order to test the activity of peptide substrates, the gene for hGOAT was cloned with a C-terminal His10 tag into the pFastBacDual vector and expressed using standard baculoviral procedures.
With the peptide substrates, the addition of the hydrophobic octanoyl group upon serine acylation at position 3 leads to an increase in retention time in reverse-phase (RP) HPLC. The panel of fluorescent ghrelin peptide substrates was assayed for activity with hGOAT using HPLC coupled with fluorescence detection of the fluorescently labeled peptides. All reactions with hGOAT-His 10 membranes were performed in parallel with mock membranes to account for nonspecific peptide modifications.
An assay for human ghrelin O-acyltransferase activity was performed using hGOAT expressed from insect (Sf9) cells using standard baculoviral methods and a fluorescent 6-mer peptide synthesized by a single step reaction followed by high performance liquid chromatography (HPLC) purification. The assay was performed at room temperature using hGOAT membrane protein, octanoyl-CoA, a fluorescent ghrelin peptide, a buffer, and a detergent. Activity may be measure by detecting the presence of any octanoylation of the ghrelin peptide. For example, the presence of octanoylated ghrelin peptide may be confirmed by HPLC or by using a fluorescent system whose fluorescence will increase as a result of octanoylation of the ghrelin peptide.

Substance: Dansyl-GSSFLS (SEQ. ID No. 2) (ends and bridges not checked) [Substrate 1-Dansyl, ghrelin mimic peptide with N-terminal dansyl fluorophore]
- modification (octanoylation) by hGOAT: not modified by hGOAT
- Active with hGOAT?: No

Substance: GCAcDanSFLS (SEQ. ID No. 3) (GC(acrylodan)SFLS; ends and bridges not checked) [AcDan-2, ghrelin mimic peptide with acrylodan on cysteine at position 2]
- modification (octanoylation) by hGOAT: not modified by hGOAT
- Active with hGOAT?: No

Substance: GSSFCAcDanS (SEQ. ID No. 4) (GSSFC(acrylodan)S; ends and bridges not checked) [AcDan-5, ghrelin mimic peptide with acrylodan on cysteine at position 5]
- modification (octanoylation) by hGOAT: yielded the octanoylated peptide with increased retention time
- Active with hGOAT?: Yes

Substance: GSSFLCAcDan (SEQ. ID No. 5) [AcDan-6]
- modification (octanoylation) by hGOAT: yielded the octanoylated peptide with increased retention time
- Active with hGOAT?: Yes

Substance: [Ac]GSSFLC (SEQ. ID No. 1)
- activity with hGOAT (substrate selectivity at N-terminus, G1 and S2): low activity

Substance: [Ac]SSFLC (SEQ. ID No. 6) (Ac-SSFLC; not fully specified; ends and bridges not checked) [N-terminally acetylated ghrelin mimic peptide lacking G1]
- activity with hGOAT (substrate selectivity at N-terminus, G1 and S2): no activity
